Laboratory results from patent publication US20180339041A1 (Kyowa Kirin, published 2018).

target: T1, C-terminally FLAG-tagged human Gas6 recombinant protein (hGas6-F) (human, UniProt Q14393 31-678, gamma-carboxylated glutamic acid residues in the Gla domain (producer cells co-express rat VKOR and human GGCX); positions not given); test: SPR Biacore T100, captured antibody, Gas6 analyte, first test
T1 construct: also called human Gas6-F; human Gas6 protein
T1 sequence: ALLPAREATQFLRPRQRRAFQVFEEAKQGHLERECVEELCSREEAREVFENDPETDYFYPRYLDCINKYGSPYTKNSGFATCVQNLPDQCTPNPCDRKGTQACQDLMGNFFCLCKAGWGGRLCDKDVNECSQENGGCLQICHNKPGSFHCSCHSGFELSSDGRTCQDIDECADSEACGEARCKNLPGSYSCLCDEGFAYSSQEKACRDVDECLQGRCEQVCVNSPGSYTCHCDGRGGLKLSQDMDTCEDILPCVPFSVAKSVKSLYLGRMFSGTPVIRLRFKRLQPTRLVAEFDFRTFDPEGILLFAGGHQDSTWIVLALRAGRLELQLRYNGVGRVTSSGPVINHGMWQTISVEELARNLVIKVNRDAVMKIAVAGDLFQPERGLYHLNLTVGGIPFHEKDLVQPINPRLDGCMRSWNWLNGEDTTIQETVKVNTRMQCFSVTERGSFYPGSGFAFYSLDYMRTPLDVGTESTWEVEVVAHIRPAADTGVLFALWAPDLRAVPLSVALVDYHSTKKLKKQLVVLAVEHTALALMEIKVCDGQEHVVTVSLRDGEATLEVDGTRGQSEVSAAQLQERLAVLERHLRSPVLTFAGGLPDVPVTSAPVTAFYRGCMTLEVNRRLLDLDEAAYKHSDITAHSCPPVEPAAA
Experimental: An anti-human IgG antibody was immobilized on a CM5 sensor chip (manufactured by GE Healthcare Japan Corp.) using Human Antibody Capture Kit (manufactured by GE Healthcare Japan Corp.) according to the attached manual. Each test antibody adjusted to 1 μg/mL was added for 10 seconds at a flow rate of 10 μL/min to flow cells. […] The measurement was performed by the […] method. The obtained sensorgram was analyzed using Bia Evaluation Software (manufactured by GE Healthcare Japan Corp.), and the kinetic constant of each antibody was calculated.

| Binder | Kd [nM] | koff [s⁻¹] | kon [M⁻¹ s⁻¹] |
| --- | --- | --- | --- |
| hzKM5320 LV5HV3a antibody (antibody, V domains shown, Humanized; variant human IgG4 constant region (EU S228P, L235E, R409K), human kappa; also called A-21) VH: QVQLVQSGSELKKPGASVKVSCKASGYTFTNYGMNWVRQAPGQGLKWMGWINTETGEPTYSDDFKGRFVFSLDTSVSTAYLQISSLKAEDTATYFCAREDGYYGTLDYWGQGTTVTVSS VL: DIVMTQSPDSLAVSLGERVTINCKASQSVSNDVAWYQQKPGQSPKVLIYYASNRYTGVPDRFSGSGSGTDFTFTISSVQAEDVAVYFCQQDYSSPWTFGQGTKLEIK | < 2.3 | 0.000177 | > 77100 |
| hzKM5320 LV2bHV8 antibody (antibody, V domains shown, Humanized; variant human IgG4 constant region (EU S228P, L235E, R409K), human kappa; also called A-14) VH: QIQLVQSGPELKKPGASVKISCKASGYTFTNYGMNWVKQAPGQGLKWMGWINTETGEPTYSDDFKGRFVFSLDTSVTTAYLQISSLKAEDTATYFCAREDGYYGTLDYWGQGTTVTVSS VL: DVVMTQSPDSLAVSAGERVTINCKASQSVSNDVAWYQQKPGQSPKLLIYYASNRYTGVPDRFSGSGSGTDFTFTISSLQAEDVAVYYCQQDYSSPWTFGQGTKLEIK | < 9.77 | 0.000791 | > 81000 |
| hzKM5320 LV2bHV0 antibody (antibody, V domains shown, Humanized; variant human IgG4 constant region (EU S228P, L235E, R409K), human kappa; also called A-06) VH: QVQLVQSGSELKKPGASVKVSCKASGYTFTNYGMNWVRQAPGQGLEWMGWINTETGEPTYSDDFKGRFVFSLDTSVSTAYLQISSLKAEDTAVYYCAREDGYYGTLDYWGQGTTVTVSS VL: DVVMTQSPDSLAVSAGERVTINCKASQSVSNDVAWYQQKPGQSPKLLIYYASNRYTGVPDRFSGSGSGTDFTFTISSLQAEDVAVYYCQQDYSSPWTFGQGTKLEIK | < 14.4 | 0.00104 | > 72600 |
| hzKM5320 LV5HV3b antibody (antibody, V domains shown, Humanized; variant human IgG4 constant region (EU S228P, L235E, R409K), human kappa; also called A-22) VH: QIQLVQSGSELKKPGASVKISCKASGYTFTNYGMNWVRQAPGQGLEWMGWINTETGEPTYSDDFKGRFVFSLDTSVSTAYLQISSLKAEDTAVYFCAREDGYYGTLDYWGQGTTVTVSS VL: DIVMTQSPDSLAVSLGERVTINCKASQSVSNDVAWYQQKPGQSPKVLIYYASNRYTGVPDRFSGSGSGTDFTFTISSVQAEDVAVYFCQQDYSSPWTFGQGTKLEIK | < 2.01 | 0.000153 | > 76300 |
| hzKM5320 LV1aHV0 antibody (antibody, V domains shown, Humanized; variant human IgG4 constant region (EU S228P, L235E, R409K), human kappa; also called A-03) VH: QVQLVQSGSELKKPGASVKVSCKASGYTFTNYGMNWVRQAPGQGLEWMGWINTETGEPTYSDDFKGRFVFSLDTSVSTAYLQISSLKAEDTAVYYCAREDGYYGTLDYWGQGTTVTVSS VL: DVVMTQSPDSLAVSLGERVTINCKASQSVSNDVAWYQQKPGQSPKLLIYYASNRYTGVPDRFSGSGSGTDFTLTISSLQAEDVAVYFCQQDYSSPWTFGQGTKLEIK | < 12.6 | 0.000829 | > 65700 |
| hzKM5320 LV0HV8 antibody (antibody, V domains shown, Humanized; variant human IgG4 constant region (EU S228P, L235E, R409K), human kappa; also called A-10) VH: QIQLVQSGPELKKPGASVKISCKASGYTFTNYGMNWVKQAPGQGLKWMGWINTETGEPTYSDDFKGRFVFSLDTSVTTAYLQISSLKAEDTATYFCAREDGYYGTLDYWGQGTTVTVSS VL: DVVMTQSPDSLAVSLGERVTINCKASQSVSNDVAWYQQKPGQSPKLLIYYASNRYTGVPDRFSGSGSGTDFTLTISSLQAEDVAVYYCQQDYSSPWTFGQGTKLEIK | < 9.79 | 0.000714 | > 72900 |
| hzKM5320 LV5HV1 antibody (antibody, V domains shown, Humanized; variant human IgG4 constant region (EU S228P, L235E, R409K), human kappa; also called A-19) VH: QVQLVQSGSELKKPGASVKVSCKASGYTFTNYGMNWVRQAPGQGLKWMGWINTETGEPTYSDDFKGRFVFSLDTSVSTAYLQISSLKAEDTAVYYCAREDGYYGTLDYWGQGTTVTVSS VL: DIVMTQSPDSLAVSLGERVTINCKASQSVSNDVAWYQQKPGQSPKVLIYYASNRYTGVPDRFSGSGSGTDFTFTISSVQAEDVAVYFCQQDYSSPWTFGQGTKLEIK | < 2.48 | 0.000184 | > 74100 |
| hzKM5320 LV2aHV8 antibody (antibody, V domains shown, Humanized; variant human IgG4 constant region (EU S228P, L235E, R409K), human kappa; also called A-13) VH: QIQLVQSGPELKKPGASVKISCKASGYTFTNYGMNWVKQAPGQGLKWMGWINTETGEPTYSDDFKGRFVFSLDTSVTTAYLQISSLKAEDTATYFCAREDGYYGTLDYWGQGTTVTVSS VL: DVVMTQSPDSLAVSLGERVTINCKASQSVSNDVAWYQQKPGQSPKLLIYYASNRYTGVPDRFSGSGSGTDFTLTISSVQAEDVAVYFCQQDYSSPWTFGQGTKLEIK | < 10.2 | 0.0008 | > 78600 |
| hzKM5320 LV1bHV8 antibody (antibody, V domains shown, Humanized; variant human IgG4 constant region (EU S228P, L235E, R409K), human kappa; also called A-12) VH: QIQLVQSGPELKKPGASVKISCKASGYTFTNYGMNWVKQAPGQGLKWMGWINTETGEPTYSDDFKGRFVFSLDTSVTTAYLQISSLKAEDTATYFCAREDGYYGTLDYWGQGTTVTVSS VL: DVVMTQSPDSLAVSLGERVTINCKASQSVSNDVAWYQQKPGQSPKLLIYYASNRYTGVPDRFSGSGSGTDFTLTISSVQAEDVAVYYCQQDYSSPWTFGQGTKLEIK | < 11 | 0.000856 | > 77900 |
| hzKM5320 LV3HV8 antibody (antibody, V domains shown, Humanized; variant human IgG4 constant region (EU S228P, L235E, R409K), human kappa; also called A-15) VH: QIQLVQSGPELKKPGASVKISCKASGYTFTNYGMNWVKQAPGQGLKWMGWINTETGEPTYSDDFKGRFVFSLDTSVTTAYLQISSLKAEDTATYFCAREDGYYGTLDYWGQGTTVTVSS VL: DVVMTQSPDSLAVSLGERVTINCKASQSVSNDVAWYQQKPGQSPKVLIYYASNRYTGVPDRFSGSGSGTDFTFTISSLQAEDVAVYFCQQDYSSPWTFGQGTKLEIK | < 2.3 | 0.000174 | > 75600 |
| hzKM5320 LV1aHV8 antibody (antibody, V domains shown, Humanized; variant human IgG4 constant region (EU S228P, L235E, R409K), human kappa; also called A-11) VH: QIQLVQSGPELKKPGASVKISCKASGYTFTNYGMNWVKQAPGQGLKWMGWINTETGEPTYSDDFKGRFVFSLDTSVTTAYLQISSLKAEDTATYFCAREDGYYGTLDYWGQGTTVTVSS VL: DVVMTQSPDSLAVSLGERVTINCKASQSVSNDVAWYQQKPGQSPKLLIYYASNRYTGVPDRFSGSGSGTDFTLTISSLQAEDVAVYFCQQDYSSPWTFGQGTKLEIK | < 9.64 | 0.000694 | > 72000 |
| hzKM5320 LV5HV3c antibody (antibody, V domains shown, Humanized; variant human IgG4 constant region (EU S228P, L235E, R409K), human kappa; also called A-23) VH: QVQLVQSGPELKKPGASVKVSCKASGYTFTNYGMNWVKQAPGQGLKWMGWINTETGEPTYSDDFKGRFVFSLDTSVSTAYLQISSLKAEDTAVYYCAREDGYYGTLDYWGQGTTVTVSS VL: DIVMTQSPDSLAVSLGERVTINCKASQSVSNDVAWYQQKPGQSPKVLIYYASNRYTGVPDRFSGSGSGTDFTFTISSVQAEDVAVYFCQQDYSSPWTFGQGTKLEIK | < 1.79 | 0.00014 | > 77900 |
| hzKM5320 LV5HV0 antibody (antibody, V domains shown, Humanized; variant human IgG4 constant region (EU S228P, L235E, R409K), human kappa; also called A-08) VH: QVQLVQSGSELKKPGASVKVSCKASGYTFTNYGMNWVRQAPGQGLEWMGWINTETGEPTYSDDFKGRFVFSLDTSVSTAYLQISSLKAEDTAVYYCAREDGYYGTLDYWGQGTTVTVSS VL: DIVMTQSPDSLAVSLGERVTINCKASQSVSNDVAWYQQKPGQSPKVLIYYASNRYTGVPDRFSGSGSGTDFTFTISSVQAEDVAVYFCQQDYSSPWTFGQGTKLEIK | < 2.85 | 0.00019 | > 66700 |
| hzKM5320 LV2aHV0 antibody (antibody, V domains shown, Humanized; variant human IgG4 constant region (EU S228P, L235E, R409K), human kappa; also called A-05) VH: QVQLVQSGSELKKPGASVKVSCKASGYTFTNYGMNWVRQAPGQGLEWMGWINTETGEPTYSDDFKGRFVFSLDTSVSTAYLQISSLKAEDTAVYYCAREDGYYGTLDYWGQGTTVTVSS VL: DVVMTQSPDSLAVSLGERVTINCKASQSVSNDVAWYQQKPGQSPKLLIYYASNRYTGVPDRFSGSGSGTDFTLTISSVQAEDVAVYFCQQDYSSPWTFGQGTKLEIK | < 15.2 | 0.00105 | > 69100 |
| hzKM5320 LV3HV0 antibody (antibody, V domains shown, Humanized; variant human IgG4 constant region (EU S228P, L235E, R409K), human kappa; also called A-07) VH: QVQLVQSGSELKKPGASVKVSCKASGYTFTNYGMNWVRQAPGQGLEWMGWINTETGEPTYSDDFKGRFVFSLDTSVSTAYLQISSLKAEDTAVYYCAREDGYYGTLDYWGQGTTVTVSS VL: DVVMTQSPDSLAVSLGERVTINCKASQSVSNDVAWYQQKPGQSPKVLIYYASNRYTGVPDRFSGSGSGTDFTFTISSLQAEDVAVYFCQQDYSSPWTFGQGTKLEIK | < 2.91 | 0.000209 | > 71900 |
| hzKM5320 LV5HV4 antibody (antibody, V domains shown, Humanized; variant human IgG4 constant region (EU S228P, L235E, R409K), human kappa; also called A-24) VH: QVQLVQSGPELKKPGASVKVSCKASGYTFTNYGMNWVRQAPGQGLKWMGWINTETGEPTYSDDFKGRFVFSLDTSVSTAYLQISSLKAEDTATYFCAREDGYYGTLDYWGQGTTVTVSS VL: DIVMTQSPDSLAVSLGERVTINCKASQSVSNDVAWYQQKPGQSPKVLIYYASNRYTGVPDRFSGSGSGTDFTFTISSVQAEDVAVYFCQQDYSSPWTFGQGTKLEIK | < 2.19 | 0.000173 | > 79200 |
